# Source: patent US20110059095A1 (Regeneron, published 2011)
# Where no end group is shown, it is not given here. The star is where a group is joined. Biotin = O=C1N[C@H]2[C@H](CS[C@H]2CCCCC(=O)*)N1
# B1: H4H590N (antibody, human IgG4, V domains shown)
# VH: EVQLVESGGGLVQPGRSLRLSCAASGFTFDDYAMHWVRQAPGKGLEWVSGITWNSGTMAYADSVKGRFTISRDNAKNSLYLQMNSLRAEDTALYYCAKENWAFDYWGQGTLVTVSS
# VL: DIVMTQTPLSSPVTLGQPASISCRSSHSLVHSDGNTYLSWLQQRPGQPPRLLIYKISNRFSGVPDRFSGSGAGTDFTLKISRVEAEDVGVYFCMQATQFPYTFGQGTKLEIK
# notes: cloned onto human IgG4; also called H1M590N variable regions
# Columns and labels:
# full length human PAR-2 = target: T1, full length human PAR-2 (human, UniProt P55085 26-397); experiment: MSD cell binding
# T1 construct: overexpressed on HEK293-derived 293/D9 cells; also called 293/D9/hPAR-2rec cells
# Procedure: (§1) HEK293 cells were transfected with an NF-κB-luciferase-IRES-eGFP reporter plasmid. […] A clonal cell line, named D9, having low background levels of luciferase activity and high levels of eGFP when induced with IL-1β was made by a series of successive sorts of cell populations using flow cytometry. The 293/D9 cell line was then separately transfected with human PAR-2 or mouse PAR-2 to create the stable cell lines 293/D9/h PAR-2rec and 293/D9/m PAR-2rec, respectively.
# (§2) Cells were plated on MSD high-bind 96 well plates at a density of 4×10⁴ cells/well in PBS and incubated for one hour at room temperature. Cells were then blocked in PBS with 2% BSA and incubated at room temperature for one hour. Anti-PAR-2 antibodies (ranging from 100 nM to 0.098 nM) were serially diluted two-fold in PBS with 0.5% BSA and incubated with the cells for one hour at room temperature followed by washing in PBS with 0.5% BSA. Sulfo-tagged anti-human IgG antibody (MSD) at a concentration of 0.1 μg/ml was then added to the cell/antibody mixture and incubated at room temperature for an additional hour. After another wash, a 1× non-surfactant containing read buffer was added and electro-chemiluminescent signal was read on the MSD Sector Imager. Signal of antibody binding to 293/D9 cells was subtracted from signal to 293/D9/hPAR-2rec or 293/D9/mPAR-2rec cells. Subtracted data were analyzed using a sigmoidal dose-response model in GraphPad Prism and EC₅₀ and Bₘₐₓ values were reported (Table 18). EC₅₀ values are defined as the antibody concentration required to achieve 50% maximal binding (Bₘₐₓ) to cells.
# full length mouse PAR-2 = target: T2, full length mouse PAR-2 (mouse, UniProt P55086 26-399); experiment: MSD cell binding
# T2 construct: also called 293/D9/mPAR-2rec cells
# T2 chain: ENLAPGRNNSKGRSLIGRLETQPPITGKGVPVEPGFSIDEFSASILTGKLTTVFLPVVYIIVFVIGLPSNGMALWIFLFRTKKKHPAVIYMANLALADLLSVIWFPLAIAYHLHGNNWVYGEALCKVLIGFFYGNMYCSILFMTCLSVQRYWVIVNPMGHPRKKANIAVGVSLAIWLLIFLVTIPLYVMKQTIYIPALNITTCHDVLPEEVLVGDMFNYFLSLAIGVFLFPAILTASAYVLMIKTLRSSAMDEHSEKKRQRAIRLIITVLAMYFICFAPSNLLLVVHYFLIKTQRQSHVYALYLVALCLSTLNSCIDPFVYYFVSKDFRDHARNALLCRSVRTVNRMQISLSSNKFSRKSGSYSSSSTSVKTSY
# Procedure: as §1, §2
# [1] = target: T3, Peptide C (human PAR-2), N-terminal biotinylated (Human); experiment: SPR, peptide immobilized
# T3 construct: also called Peptide C N-Term
# T3 peptide: Biotin-GGGGSSLIGKV
# [2] = target: T4, Peptide K (human PAR-1), unbiotinylated (Human); experiment: SPR, antibody captured
# T4 peptide: ATNATLDPRSFLLRNPND
# [3] = target: T5, Peptide L (human PAR-3), unbiotinylated (Human); experiment: SPR, antibody captured
# T5 peptide: DTNNLAKPTLPIKTFRGA
# [4] = target: T6, Peptide M (human PAR-4), unbiotinylated (Human); experiment: SPR, antibody captured
# T6 peptide: ESGSTGGGDDSTPSILPAP
# [5] = target: T7, Peptide B (human PAR-2), unbiotinylated (Human); experiment: SPR, antibody captured
# T7 construct: also called Peptide B No Biotin
# T7 peptide: SLIGKVDGTSHVTG
# Procedure: Equilibrium dissociation constants (KD values) for antigen binding to selected purified PAR-2 antibodies were determined by surface kinetics using a real-time surface plasmon resonance biosensor assay. Antibody was captured on either a rabbit anti-mouse IgG polyclonal antibody (GE Healthcare, Piscataway, N.J.) surface or a goat anti-human IgG polyclonal antibody (Jackson Immuno Research Lab, West Grove, Pa.) surface created through direct amine chemical coupling to a BIACORE™ CM5 sensor chip to form a captured antibody surface. […] Antigen-antibody binding and dissociation were monitored in real time at room temperature. Kinetic analysis was performed to calculate KD and half-life of antigen/antibody complex dissociation (Table 10). For those antibodies where no T_{1/2} value is shown, steady state analysis was used to calculate the KD value. NB: no binding observed under current experimental conditions. ND: not determined.
# [6] = target: T8, Peptide A (human PAR-2), C-terminal biotinylated (Human, C-terminal biotin via G4S linker); experiment: SPR, peptide immobilized
# T8 construct: also called Peptide A C-Term
# Procedure: (§3) In another series of experiments, equilibrium dissociation constants (KD values) for purified antibody binding to selected biotinylated and unbiotinylated forms of PAR-2 peptides were determined by surface kinetics using a real-time surface plasmon resonance biosensor assay. Neutravidin (Pierce, Rockford, Ill.) was covalently coupled to the surface of a Biacore™ C1 chip or CM5 chip using amine coupling chemistry. Biotinylated (N-Term or C-Term) PAR-2 peptides (Peptides A and B) were immobilized on the surface via the high affinity binding interaction between biotin and the amine coupled Neutravidin.
# (§4) In a first experiment using this format, varying concentrations (ranging from 5 to 100 μg/ml) of purified antibody were injected at a rate of 50 μl/min over a surface coated with immobilized peptide at low-density (<1RU) for 300 seconds. Antibody-peptide binding and dissociation was monitored in real time 25° C.
# [7] = target: T9, Peptide B (human PAR-2), C-terminal biotinylated (Human, not fully specified); experiment: SPR, peptide immobilized
# T9 construct: also called Peptide B C-Term
# T9 peptide: SLIGKVDGTSHVTGGGGGS-biotin
# Procedure: as §3, §4
# [8] = target: T10, Peptide A (human PAR-2), N-terminal biotinylated (Human, N-terminal biotin via G4S linker); experiment: SPR, peptide immobilized
# T10 construct: also called Peptide A N-Term
# T10 peptide: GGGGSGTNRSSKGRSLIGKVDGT
# [9] = target: T11, Peptide B (human PAR-2), N-terminal biotinylated (Human); experiment: SPR, peptide immobilized
# T11 construct: also called Peptide B N-Term
# T11 peptide: Biotin-GGGGSSLIGKVDGTSHVTG
# [10] = target: T12, Peptide E (mouse PAR-2), N-terminal biotinylated (Mouse (Mus musculus), N-terminal biotin via G4S linker); experiment: SPR, peptide immobilized
# T12 construct: also called Peptide E N-Term
# T12 peptide: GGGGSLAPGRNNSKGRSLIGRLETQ
# [11] = target: T13, Peptide G (rat PAR-2), N-terminal biotinylated (Rat (Rattus norvegicus), N-terminal biotin via G4S linker); experiment: SPR, peptide immobilized
# T13 construct: also called Peptide G N-Term
# T13 peptide: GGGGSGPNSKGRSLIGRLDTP
# [12] = target: T14, Peptide F (monkey PAR-2), N-terminal biotinylated (Monkey (Macaca mulatta), N-terminal biotin via G4S linker); experiment: SPR, peptide immobilized; SPR, biotinylated peptide on the chip, bivalent antibody in solution
# T14 construct: also called Peptide F N-Term
# T14 sequence (peptide, as listed by the source): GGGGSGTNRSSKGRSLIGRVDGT
# T1 sequence (P55085 26-397 G138A limits assumed): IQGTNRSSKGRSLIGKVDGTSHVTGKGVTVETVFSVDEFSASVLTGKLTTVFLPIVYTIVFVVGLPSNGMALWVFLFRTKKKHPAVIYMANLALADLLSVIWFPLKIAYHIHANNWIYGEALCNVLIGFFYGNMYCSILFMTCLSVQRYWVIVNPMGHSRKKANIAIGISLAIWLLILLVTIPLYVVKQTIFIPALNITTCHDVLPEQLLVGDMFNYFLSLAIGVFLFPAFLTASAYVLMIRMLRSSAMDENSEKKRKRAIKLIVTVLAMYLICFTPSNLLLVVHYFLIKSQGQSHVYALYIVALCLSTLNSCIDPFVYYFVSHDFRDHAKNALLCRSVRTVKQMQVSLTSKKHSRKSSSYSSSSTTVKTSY
binder,measurement,setting,value
B1,Bmax,full length human PAR-2,6550 MSD Unit
same,EC50,full length human PAR-2,9.72 nM
same,Bmax,full length mouse PAR-2,13300 MSD Unit
same,EC50,full length mouse PAR-2,5.76 nM
same,binding result,[1],no binding
same,binding result,[2],no binding
same,binding result,[3],no binding
same,binding result,[4],no binding
same,binding result,[5],no binding
same,Kd,[6],3.56 nM
same,T1/2,[6],3 min
same,binding result,[7],no binding
same,Kd,[8],1.52 nM
same,T1/2,[8],3 min
same,binding result,[9],no binding
same,Kd,[10],1.28 nM
same,T1/2,[10],7 min
same,Kd,[11],2.94 nM
same,T1/2,[11],2 min
same,Kd,[12],1.84 nM
same,T1/2,[12],2 min
